From patent US20080070264A1, “Intracellular Signaling-Induced Ret-Independent Gdnf Receptor-Effected Morphological Changes” (JPMORGAN CHASE BANK N.A., priority 2003, published 2008)
“Also recorded” adds a separate entry of the source.

Assays:
[1] = system: GFRα1-expressing, RET-deficient MDCK cells; experiment: Boyden chamber cell migration and chemotaxis assay; format: cell-based, dog
Procedure: (§1) FIG. 3A: In Boyden chamber chemotaxis assays, mock-transfected, GFRα1-expressing and RET/GFRα1-expressing cells were exposed to GDNF, and wild-type MDCK to HGF. The number of cells was counted as described in Materials and Methods. +/+=GDNF at 100 ng/ml or HGF at 50 ng/ml was added to both chambers to assay chemokinesis. Each result represents the mean±SEM (n=3). For each case, p<0.001.
(§2) 5×10^4 MDCK cells (GFRα1-, RET/GFRα1-expressing and mock transfected) were suspended in 300 µl of MEM with 10% FCS and seeded into 24-well cell culture inserts with the filters (Boyden chambers), pore size 8 μm (Falcon). The assay was done as described (Tang et al., 1998). Briefly, GDNF or HGF was added to the upper, or both the upper and lower chambers at the marked concentrations. After 48 h incubation, non-migrated cells on the upper surface of the filters were scrapped. Membranes with the cells on the lower surface were washed with PBS, fixed by 3% glutaraldehyde in PBS, stained with May-Grünwald Giemsa (MGG) solution, dehydrated and mounted on the slides. Cells in eight fields of each membrane were counted under the light microscope (Magnification=100×). The average and standard error of the mean were calculated. Statistical significance of the differences was estimated by t-test.
(§3) Guided migration of cells towards a chemoattractant is referred to as chemotaxis, whereas enhanced cellular motility is called chemokinesis. Chemotaxis can be tested in the Boyden dual chamber assay by adding the test substance to the lower chamber only, and chemokinesis by adding test substance to both upper and lower chambers. […] Similarly, the chemotactic migration of RET/GFRα1co-expressing MDCK cells is stimulated by GDNF in the presence of soluble GFRα1 (Tang et al., 1998).

[2] = system: RET/GFRα1-expressing MDCK cells; experiment: Boyden chamber cell migration and chemotaxis assay; format: cell-based, dog
Procedure: as §1, §2, §3

[3] = system: GFRα1-expressing, RET deficient MDCK cells; experiment: Chemoattraction assay on collagen matrix with soaked agarose beads; format: cell-based, dog; conditions: beads soaked in GDNF 10 ng/μl; collagen I; 3 days
Description: (§4) FIG. 3B: Chemoattraction assay on collagen matrix. Only RET/GFRα1-expressing cells migrate towards GDNF-soaked agarose beads. BSA-soaked agarose beads were used as negative controls. Agarose beads are denoted by white circles. Note that mock transfected, GFRα1-expressing and RET/GFRα1-expressing cells form clusters of adherent cells (denoted by arrowhead) with BSA-soaked beads after 3 days, whereas RET/GFRα1 cells migrating towards GDNF bead are dissociated.
(§5) 3.5 cm dishes were coated with collagen I solution and 20,000 cells were seeded on the coated dish. GDNF-soaked agarose beads, prepared as described (Sainio et al., 1997), were put on the gel before it solidified. Cells around the beads were photographed daily.
(§6) In another chemotaxis assay, RET/GFRα1-, GFRα1- and mock-transfected MDCK cells were seeded on culture dishes coated with collagen I. Agarose beads were soaked in GDNF (10 ng/μl) or 1% BSA. A bead was placed on top of the soft collagen, and cells were monitored for 3 days.

[4] = system: RET/GFRα1-expressing MDCK cells; experiment: as above; format: cell-based, dog; conditions: beads soaked in GDNF 10 ng/μl; collagen I; 3 days
Description: as §4, §5, §6

[5] = system: mock-transfected MDCK cells; experiment: as above; format: cell-based, dog; conditions: beads soaked in GDNF 10 ng/μl; collagen I; 3 days
Description: as §4, §5, §6

MET [6] = experiment: MET phosphorylation in MDCK cells (immunoprecipitation, Western blotting); format: cell-based, dog
Procedure: To detect MET activation, GFRα1- and RET/GFRα1-expressing MDCK or SHEP cells were starved overnight in MEM or RPMI 1640 with 1% FCS, respectively, and in serum-free medium for 2 h prior the induction. After 15 min incubation at 37° C. with GDNF (at indicated concentrations) or with 50 ng/ml HGF, cells were lysed as described. Cleared cell lysates were incubated with anti-MET antibodies (Santa Cruz Biotechnologies, Inc.) overnight at 4° C. Immunoprecipitates were collected with protein A-SEPHAROSE (Amersham Pharmacia Biotech), washed, separated by SDS-PAGE and transferred to HYBOND-ECL membranes. Membranes were immunoblotted with anti-phospho-tyrosine antibodies (Upstate Group Inc.) or anti-MET antibodies.
Alternatively, 30 μg of protein was incubated overnight at 4° C. with 10 μl Immobilized Phospho-Tyrosine Monoclonal Antibodies (Cell Signalling, NEB). Immunocomplexes were washed and analysed as described.
For all experiments, densitometry and quantifications were performed using TINA 2.0 program (Raytest, Straubenhardt, Germany).
For the inhibition of MET, and Src activation, SHEP or GFRα1- and RET/GFRα1-expressing MDCK cells were starved as described above. 1 or […] of the inhibitor PP2 (Calbiochem) was added 30 min before induction by GDNF or HGF. DMSO (dimethyl sulfoxide) was added to the positive controls together with GDNF or HGF.

[7] = system: ret −/−, ret +/− and ret +/+ kidney explants; experiment: Ureteric branching in cultured E11 urogenital block explants; design: species or system mouse
Procedure: FIG. 8A-FIG. 8D: Urogenital blocks including the Wolffian duct (wd), mesonephros (meso) and metanephros (meta) were dissected from E11 ret −/− (panels A, B), ret +/− (panel C) and ret +/+ (panel D) mouse embryos. The two urogenital blocks from the embryos were separately cultured for 4 days. One side was cultured without GDNF (panels A, C, D) and the other side with 50 ng/ml of GDNF (panel B). Urogenital block explants were fixed and immunostained with pan-cytokeratin antibodies. Scale bar: 200 μm.
FIG. 8E: The number of ureteric branches of ret −/−, ret +/− and ret +/+ kidneys with or without GDNF supplementation. Numbers in parenthesis indicate the kidney explants counted. […] Each result represents the mean±SEM (n=5).
To analyze the possible role of RET-independent, GFRα1-mediated signaling in ureteric budding and branching during nephrogenesis, the ability of exogenous GDNF to induce ureteric budding or sustain its branching in ret-deficient mice was tested. E11 ret −/− urogenital blocks including kidney rudiments were cultured for 4 days with or without 50 ng/ml of GDNF (FIG. 8). […] Thus, RET-independent signaling by GDNF has an apparent role in the ureteric branching, but may be less significant in the primary bud formation.

MET [8] = experiment: MET phosphorylation in Neuro-2A neuroblastoma cells; format: cell-based
MET [9] = experiment: MET activation in GFRα1-transfected COS7 cells; format: cell-based
[10] = GDNF 100 ng/ml added to both chambers

B1: GDNF: recombinant glial cell line-derived neurotrophic factor from Cephalon Inc. (baculovirus-infected insect cells) or R&D Systems, Inc. (mouse myeloma NSO) (protein, UniProt P39905 78-211, looked up)
Glial cell line-derived …: SPDKQMAVLPRRERNRQAAAANPENSRGKGRRGQRGKNRGCVLTAIHLNVTDLGLGYETKEELIFRYCSGSCDAAETTYDKILKNLSRNRRLVSDKVGQACCRPIAFDDDLSFLDDNLVYHILRKHSAKRCGCI
With B1 the chemotactic response ([1]; Boyden chamber, 48 h) was “did not demonstrate a chemotactic response”, the “migration with ligand in both chambers (chemokinesis)” value [1, 10] was “only slightly reduced” and the chemotactic migration ([2]; Boyden chamber, 48 h) was “induced chemotactic migration”. The “migration with ligand in both chambers compared to the maximal chemotactic response (chemokinesis)” value [2, 10] was “reduced threefold”, the “migration towards soaked agarose bead” value [3] was “Neither GFRα1-expressing, RET deficient cells nor mock-transfected cells, however, were attracted” and the “migration towards soaked agarose bead” value [4] was “actively migrated towards the source of GDNF”. The “migration towards soaked agarose bead” value [5] was “Neither GFRα1-expressing, RET deficient cells nor mock-transfected cells, however, were attracted”, the MET phosphorylation (MET [6]; GFRα1- and Ret/GFRα1-expressing MDCK cells) was “evoked MET phosphorylation” and the “GDNF concentration at which MET activation reached saturation” value (MET [6]; GFRα1- and Ret/GFRα1-expressing MDCK cells, 15 min) was 0.1 pg/mL. For the same molecule, the “time to MET activation” value (MET [6]; GFRα1-expressing and RET/GFRα1-expressing MDCK cells) was no more than 15 min, the “duration of MET activation” value (MET [6]; GFRα1-expressing and RET/GFRα1-expressing MDCK cells, data not shown) was “at least 2 hours” and the “concentration at which MET is saturated” value (MET [6]; GFRα1-expressing and RET/GFRα1-expressing MDCK cells, printed as 4 fM (0.1 pg/ml)) was 4 fM. For the same molecule, the MET phosphorylation (MET [6]; wild type MDCK cells) was “but not in wild type MDCK cells”, the “number of ureteric bud tips” value ([7]; ret +/− explants, GDNF 50 ng/ml, 4 days culture) was “increased the number of ureteric bud tips” and the “number of ureteric bud tips / ureteric branching” value ([7]; ret −/− explants, GDNF 50 ng/ml, 4 days culture) was “increased but not to the level seen in wild type kidneys; also recorded: significantly increased ureteric branching”. The “number of urogenital explants completely lacking a ureteric bud” value ([7]; ret −/− explants, with or without exogenous GDNF) was “remained the same”, the “number of ureteric bud tips” value ([7]; wild-type explants, GDNF 50 ng/ml, 4 days culture) was “increased the number of ureteric bud tips” and the MET phosphorylation (MET [8]) was “induced MET phosphorylation”. The MET activation (MET [9]) was “takes place”.
